According to publication PMC6093495:

Experiments:
[1] = molecular target: OmpF trimer (Escherichia coli (endogenous in B^E3000)) (UniProt P02931); experiment: ITC
[2] = molecular target: OmpF (Escherichia coli) (UniProt P02931); experiment: ITC; details: cited from earlier work

Substance | Kd [1] [µM] | dH [1] [kcal·mol^–1] | stoichiometry N [1] | Kd [2] [µM]
(OBS2)3, TMEA-mediated tridentate OBS2 in the form of a colicin DNase fusion (S71C ColE9^53–83-DNase) (from UniProt P09883 53-83) | 0.48 | -5.64 | 3 | 
Colicin E9 OBS1 peptide OBS1 (from UniProt P09883) |  |  |  | 2
Colicin E9 OBS2 peptide |  |  |  | 24
